This series has as its target T1, MgrA (Staphylococcus aureus XN108) (UniProt P0C1S0).
T1 sequence: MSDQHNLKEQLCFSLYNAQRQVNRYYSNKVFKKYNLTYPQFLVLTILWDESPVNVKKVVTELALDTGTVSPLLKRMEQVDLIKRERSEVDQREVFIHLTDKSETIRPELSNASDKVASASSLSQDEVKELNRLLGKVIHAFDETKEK
Description: competition.

For the sequence “TTTACGTGCAGCACGTTCACGTACCTCAAAGTTACCGAAACCAATTAATTGTACTTTTTCACCTTTAGCAAGTGAGTTTTGGATTGATTCGAATACAGCATCTACTGCTGAACCAGCTTCTTTTT (double strand) [hu fragment (competitor)]”, the binding result is listed as “no binding”.
